The target in test [1] is T1, Recombinant human placenta growth factor-2 (PlGF-2) (human) (UniProt P49763).
T1 sequence (looked up): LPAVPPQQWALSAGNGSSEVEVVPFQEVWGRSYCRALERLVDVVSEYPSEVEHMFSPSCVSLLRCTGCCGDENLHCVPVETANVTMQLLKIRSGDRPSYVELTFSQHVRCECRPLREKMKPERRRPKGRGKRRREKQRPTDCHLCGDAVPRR
In words: cell-based or functional assay.

Test [2] deals with T1, Recombinant human placenta growth factor-2 (PlGF-2) (human). Briefly: phage ELISA on PlGF-coated plates, anti-M13-HRP detection; phage library background 0.003. Background: In an ELISA, binding on a coated surface is turned into a signal by an enzyme label.
In test [3] the target is T2, Recombinant human placenta growth factor-2 (PlGF-2) (human, UniProt P49763-3 19-170, limits assumed).
T2 construct: Bought protein; also called rhuPlGF
T2 sequence (looked up): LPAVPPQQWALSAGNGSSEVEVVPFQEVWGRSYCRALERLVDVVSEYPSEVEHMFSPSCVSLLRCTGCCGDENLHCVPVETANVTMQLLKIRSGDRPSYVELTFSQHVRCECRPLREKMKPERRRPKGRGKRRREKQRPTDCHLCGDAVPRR
Briefly: ELISA, free FLAG-tagged peptide on PlGF-coated wells.

Test [4] deals with T3, Recombinant human Flt-1 fusion protein (human, UniProt P17948 27-756).
T3 construct: Bought fusion protein coated on plates at 10 µg/ml; also called VEGFR1; VEGF receptor I
Briefly: ELISA, free FLAG-tagged peptide on Flt-1-coated wells.

Test [5] concerns the target T3, Recombinant human Flt-1 fusion protein. In words: ELISA-based binding assay.
Test [6] has as its target T4, Recombinant human VEGF 165 (human, UniProt P15692-4 27-191).
T4 construct: Bought protein
In words: ELISA, FLAG-tagged free peptide on VEGF165-coated wells, anti-FLAG detection.

Test [7] has as its target T4, Recombinant human VEGF 165. Briefly: ELISA-based binding assay.
Test [8] addresses T2, Recombinant human placenta growth …. In words: cell-based or functional assay.
Test [9] shares this target. Briefly: cell-based or functional assay. This is another data set of the same source.

These results are taken from patent US20070087001A1 (CENTER FOR MOLECULAR MEDICINE AND IMMUNOLOGY, published 2007).

Ends that are not written are not given here.

T3 sequence (P17948 27-756): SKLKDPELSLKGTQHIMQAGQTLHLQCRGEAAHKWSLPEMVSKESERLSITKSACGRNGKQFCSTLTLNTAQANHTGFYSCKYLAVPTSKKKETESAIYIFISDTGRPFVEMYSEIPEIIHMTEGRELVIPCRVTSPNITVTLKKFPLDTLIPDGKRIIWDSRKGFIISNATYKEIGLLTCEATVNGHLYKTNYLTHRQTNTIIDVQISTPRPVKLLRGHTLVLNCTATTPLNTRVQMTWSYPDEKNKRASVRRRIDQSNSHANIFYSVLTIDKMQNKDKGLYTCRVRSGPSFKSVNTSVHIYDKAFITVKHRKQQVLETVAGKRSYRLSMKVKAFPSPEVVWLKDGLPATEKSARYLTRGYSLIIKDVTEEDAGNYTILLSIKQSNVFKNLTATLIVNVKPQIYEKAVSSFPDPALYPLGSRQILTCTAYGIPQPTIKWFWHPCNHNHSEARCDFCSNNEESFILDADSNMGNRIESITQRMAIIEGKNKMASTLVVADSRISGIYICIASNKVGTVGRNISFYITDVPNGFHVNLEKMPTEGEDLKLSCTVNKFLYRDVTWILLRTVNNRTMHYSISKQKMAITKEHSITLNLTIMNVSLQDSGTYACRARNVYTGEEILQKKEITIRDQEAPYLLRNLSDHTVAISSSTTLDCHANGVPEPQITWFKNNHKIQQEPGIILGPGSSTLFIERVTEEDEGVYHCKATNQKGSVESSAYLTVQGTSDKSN
T4 sequence (P15692 other isoform, or with tags, fused parts or gaps limits assumed): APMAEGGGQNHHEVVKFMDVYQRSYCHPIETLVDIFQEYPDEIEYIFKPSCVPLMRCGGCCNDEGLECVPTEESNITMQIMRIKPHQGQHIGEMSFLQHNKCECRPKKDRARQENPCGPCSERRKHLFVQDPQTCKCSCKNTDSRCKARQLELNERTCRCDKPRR

In the case of “Human recombinant soluble Flt-1 (sFlt-1) (from UniProt P17948 27-756) (receptor)”, in test [1], the Block of the stimulatory effect of PlGF on motility, MCF-7 was 67%; the Block of the stimulatory effect of PlGF on motility, MDA-MB-231 was 55%; the Migrating cells (wound-healing assay, MCF-7, PlGF 2 nM + Flt-1 2 nM) (cells/100x field) is 10.4; the Migrating cells (wound-healing assay, MDA-MB-231, PlGF 2 nM + Flt-1 2 nM) (cells/100x field) was determined as 19.1. Also, in test [1], the Migrating cells (wound-healing assay, MDA-MB-468, PlGF 2 nM + Flt-1 2 nM) (cells/100x field) worked out at 7.8; the Relative activity (wound-healing assay, MCF-7) (relative to PlGF-only = 100) was 47; the Relative activity (wound-healing assay, MDA-MB-231) (relative to PlGF-only = 100) was found to be 45; the Relative activity (wound-healing assay, MDA-MB-468) (relative to PlGF-only = 100) was 53.

B1: Phage BP1 (BP1 peptide displayed on M13 phage) (peptide, not shown: large carriers; small tags and cut ends)
peptide: SHRYRLAIQLHASDSSSSCV
modifications: also: displayed on M13 phage, fused to pIII coat protein, spacer and fusion end not given here
As to B1, in test [2], the absorbance (410 nm) stood at 0.024 A410.

B2: Peptide BP4 synthesized with a linker and a C-terminal FLAG epitope (peptide, not shown: small tags and cut ends)
peptide: RMPYSEHSAPLGDYKDDDDK
modifications: also: linker between peptide and FLAG epitope, sequence not given here
On to B2, for which the binding result in test [3] is given as “no binding (tested: 50 µM)”; in test [4], “no binding”.

B3: Peptide BP1 (Binding Peptide 1) synthesized with a linker and a C-terminal FLAG epitope (peptide, not shown: small tags and cut ends)
peptide: SHRYRLAIQLHASDSSSSCVDYKDDDDK
modifications: also: linker between peptide and FLAG epitope, sequence not given here
notes: detected by probing for FLAG
Regarding B3, the fold over background in test [5] was 10 fold over background. Also, in test [6], the A490 came out at 0.299 A490.

B4: Peptide BP3 synthesized with a linker and a C-terminal FLAG epitope (peptide, not shown: small tags and cut ends)
peptide: QEAFNRLTSRMHDYKDDDDK
modifications: also: linker between peptide and FLAG epitope, sequence not given here
With B4, the figures for the binding result in test [3] and in test [4] were “no binding (tested: 50 µM)” and “no binding”, respectively.

B5: Control peptide CPA (BP1 with A substituted for the H, R and D residues) (peptide)
peptide: SAAYALAIQLAASASSSSCV
Take B5: the binding result in [7] is “binds”. Besides, in test [8], the “Relative activity (wound-healing assay, MDA-MB-231)” value is 106 relative to PlGF-only = 100 and the “Relative activity (wound-healing assay, MDA-MB-468)” value was 147 relative to PlGF-only = 100. Further, in test [9], the “Average fold-change in invading cells vs untreated (MCF-7, PlGF 0.2 nM + CPA 2 µg/ml)” value is 1 fold vs untreated; the “Average fold-change in invading cells vs untreated (MDA-MB-231, PlGF 0.2 nM + CPA 2 µg/ml)” value was 4.9 fold vs untreated; the “Average fold-change in invading cells vs untreated (MDA-MB-468, PlGF 0.2 nM + CPA 2 µg/ml)” value stood at 1.2 fold vs untreated.

B6: Binding Peptide 1 (BP1), synthetic peptide (peptide)
peptide: SHRYRLAIQLHASDSSSSCV
With B6, in test [8], the “Relative activity (wound-healing assay, MCF-7)” value is 45 relative to PlGF-only = 100; the “Relative activity (wound-healing assay, MDA-MB-231)” value is 32 relative to PlGF-only = 100; the “Relative activity (wound-healing assay, MDA-MB-468)” value was 97 relative to PlGF-only = 100. In addition, in test [9], the “Average fold-change in invading cells vs untreated (MCF-7, PlGF 0.2 nM + BP1 2 µg/ml)” value was 0.3 fold vs untreated; the “Average fold-change in invading cells vs untreated (MDA-MB-231, PlGF 0.2 nM + BP1 2 µg/ml)” value was determined as 1.3 fold vs untreated; the “Average fold-change in invading cells vs untreated (MDA-MB-468, PlGF 0.2 nM + BP1 2 µg/ml)” value was 0.6 fold vs untreated.
